{
  "source": "patent CN113512118A",
  "biological_target": "sCD146蛋白 (CD146胞外区蛋白, Sino Biological 10115-H08H-20) (human) (UniProt P43121)",
  "sequence (P43121 24-559)": "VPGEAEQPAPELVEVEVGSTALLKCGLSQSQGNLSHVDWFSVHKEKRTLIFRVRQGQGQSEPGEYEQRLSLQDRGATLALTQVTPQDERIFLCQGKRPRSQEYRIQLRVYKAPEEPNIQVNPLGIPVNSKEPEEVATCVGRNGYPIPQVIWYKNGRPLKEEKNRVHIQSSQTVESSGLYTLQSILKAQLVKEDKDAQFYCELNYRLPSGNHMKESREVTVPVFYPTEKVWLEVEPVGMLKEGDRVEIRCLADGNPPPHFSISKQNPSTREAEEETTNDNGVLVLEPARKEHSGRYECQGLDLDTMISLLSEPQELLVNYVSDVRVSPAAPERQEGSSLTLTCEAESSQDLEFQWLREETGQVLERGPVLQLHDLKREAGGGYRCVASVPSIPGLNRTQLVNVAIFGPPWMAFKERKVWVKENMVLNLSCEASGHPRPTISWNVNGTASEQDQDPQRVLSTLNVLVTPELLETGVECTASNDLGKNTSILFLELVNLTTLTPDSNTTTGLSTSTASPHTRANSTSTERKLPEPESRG",
  "test": "BLI (Octet Red96), against parental AA98",
  "data": [
    {"substance": "H13-112抗体 (AA98 variant, heavy chain I28K and light chain L51Y) (antibody)", "values": [
      {"measurement": "fold increase of affinity against AA98", "value": 10, "unit": "fold"}
    ]}
  ]
}
